The target in this experiment is CD38 on cells (Raji, Daudi, REH, CD38-transfected HEK293) (human) (UniProt P28907). As to the kind of experiment: flow cytometry on Raji cells; top asymptote fixed at about the maximum response of Darzalex.

Darzalex® (CD38 control) (antibody): the Adjusted* EC50 was determined as 1.27 nM.

Values taken from patent US20260103536A1.
